Experimental data published in the supplement of paper PMC12042874.
± gives the uncertainty stated by the source.

Assay: amyloid nucleation score (Sup35N fusion, yeast selection) (log enrichment); library NNK3; higher = more nucleation; inactive = no reads after selection
How it was run: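 Peptides of 20 random codons fused to Sup35N were expressed in psi-negative yeast, induced 24 hours with 100 μM copper sulfate, then grown 7 days at 30°C on medium lacking adenine and uracil. Input and output plasmid inserts were Illumina-sequenced. Nucleation score is the DiMSum log enrichment of output over input reads, centred on the mode score of non-aggregating sequences, excluding sequences with under 100 input reads. Random libraries had three technical output replicates.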

Row | Substance | amyloid nucleation score
1 | KSSSFSFVASCGHAVILQKK | inactive
2 | YVEMYN | inactive
3 | FVDLHCSYRCIYGCCHFRIR | inactive
4 | GFLCDGGN | 0.149 ± 0.51
5 | DKTCKVDWMSFTSHDF | inactive
6 | RQGAKVRTGGHKKQSGSSCR | inactive
7 | NRSFSNGCVIRLELFNNVYA | inactive
8 | ELVVTNVNGFLMW | inactive
9 | KHRWVQLLWCWYFTGSQYRI | inactive
10 | QWSCGFMYSFKHLGGDCYNL | inactive
11 | RGCCKRPDGSKLVFIQMLIS | inactive
12 | IVYLRKPCYNW | inactive
13 | RTSRT | inactive
14 | SINDLGLWNVTVKFLCK | -0.037 ± 0.63
15 | VSCYVTHISYRSSFGSMFYS | inactive
16 | VMLCFTFSMLVLVGGQVCLY | inactive
17 | LKVVVDQKVG | 1.27 ± 0.15
18 | ETDYVGRFALMKYDGLVYI | inactive
19 | SLLGSEGVSLIFLHYYWWSA | inactive
20 | SNCFQYECMSWSWDYLHECW | inactive
21 | SDLYDVVEPVAMVTCDSKEK | inactive
22 | RVTCLFFNPRRTTNYSSSVG | 1.1 ± 0.11
23 | VYDLVT | inactive
24 | YSVNSTLLLYVSKYEFIPCV | 0.169 ± 0.29

Row | Substance | amyloid nucleation score
25 | GLALNWLCG | 0.026 ± 0.43
26 | SFHTDTPLMRHYIMRFYNDY | inactive
27 | TRWGCSSSSNFGCFDDKRRL | inactive
28 | INYQLMW | 0.9 ± 0.1
29 | VPGCA | -0.075 ± 1.1
30 | YWCLYLNSNCKMW | 0.31 ± 0.44
31 | VGVSISLSRARWGQIAMEET | 1.05 ± 0.2
32 | SFLRYNKSY | inactive
33 | VYVFAQ | inactive
34 | CALCRYC | inactive
35 | NMSWNVCVRFK | 1.87 ± 0.068
36 | GDPNPHYL | inactive
37 | YVMDNNFM | inactive
38 | DAPSFLSMSRFAFYNFNLYW | 1.29 ± 0.12
39 | KIYDVFSRFKYRMQSVYKQA | inactive
40 | SWCQGNCGMLLAHRSYKRAY | -0.48 ± 0.55
41 | FLNKITNVSIYLIGTRETDV | 2.81 ± 0.064
42 | FTYCRASRSITMQYVCVICT | inactive
43 | EMGEGIL | inactive
44 | VLLMRNAVIYPGSGMSSSSA | inactive
45 | PDYEHKVSLLEGKRAYLEHF | inactive
46 | NCMELLWCCSCSSVICVMHH | 2.96 ± 0.07
47 | SNWEFYDRYTYRRLGLEQKV | inactive
48 | SSGVEAGVSRMMLQ | inactive

Row | Substance | amyloid nucleation score
49 | FVTVVGGLRWNVTFSERWSV | 0.081 ± 0.61
50 | RCSHDYGLWVVDWVVSKWGC | inactive
51 | ENVARGAMFCPMHRGFQSSE | inactive
52 | VGRNECARRMVLRKWWLYLV | inactive
53 | NRFVDLGGQHDTHCVRGYGL | inactive
54 | LYAWPHRTIVVVWLRILLFR | inactive
55 | LMLEASCCSHAEFPHGVKMR | inactive
56 | DIFWYTASNYYIIYNAYYPA | 0.709 ± 0.14
57 | IDPQS | inactive
58 | CLFRQTFCMGP | inactive
59 | TGIMIVNYLVSELKPRTIST | 0.923 ± 0.11
60 | TQLHGDLYWLVRMRVWIVEI | inactive
61 | VVYIRWYIRLLRHNIVSILS | inactive
62 | FSIVELTLSRLK | inactive
63 | SMNACSRNGLGMWKVMDLFT | inactive
64 | LKPLGDSADGRWQLLWNSAD | inactive
65 | VCRDSVILLDLLGAMCVVYG | inactive
66 | RVMRMLSIVWFRWNEIVIFL | inactive
67 | WYFGCSALYQL | 1.49 ± 0.099
68 | NLLLFF | 1.82 ± 0.096
69 | TPMRHYKY | inactive
70 | RLYSLSSRCNLNRATPPTKS | -0.041 ± 0.75
71 | LSVLWYSWWGFNTG | inactive
72 | FFLSFRYLKKFSRIGLW | inactive

Row | Substance | amyloid nucleation score
73 | NKNGSHL | inactive
74 | TILSPMASSQNKCDKNPMLS | 1.19 ± 0.073
75 | LSYLC | inactive
76 | LLTIKN | inactive
77 | EGRWTCPFGGWTESFGSLYW | inactive
78 | IMSRCKNSYASLATVSCRSL | inactive
79 | WVFSWKMHRSKSKYRSKYLP | inactive
80 | SDEGRAIPSATPFWEYCLMW | inactive
81 | SYCVRWNRIVDFVGSCRDHG | 1.11 ± 0.11
82 | YHDLKNATHVV | inactive
83 | TWGCYLLISNI | inactive
84 | VCCSVSVAWKSWAHT | 1.28 ± 0.13
85 | GAYSGLCSILGSFLGLSAVK | inactive
86 | LLWKKRVEEDSWLHTGSERM | 0.904 ± 0.15
87 | GSRVMMCPNT | inactive
88 | IHLRDMSLS | 0.591 ± 0.16
89 | LGWSMFLFDFSFKVKSH | inactive
90 | SVTWSHFGNWVRGAGLVMHR | 0.259 ± 0.39
91 | RPWPYSYTNWDLCWLMAMPN | inactive
92 | NFGRAQSNACAENVFAIERG | inactive
93 | RFQFEGREFCLGMLDFNSWI | inactive
94 | CMPFMR | inactive
95 | FSRKDTYFLMGIFKLNLRYL | inactive
96 | GFSDLCQHYFQYLVK | inactive

Row | Substance | amyloid nucleation score
97 | SIDGMWTMYRRSVKYGDQFH | inactive
98 | LLVESMDGGRPILQDGLFKY | inactive
99 | DYMLLWNCVLVILFN | 0.323 ± 0.45
100 | VYGSQGYRGRCFHLCYYYRS | inactive
101 | LRFNDYMC | inactive
102 | CNCRKRLVWSFGYMNISMYL | inactive
103 | FSFFRGTRLGKSARIAERFE | inactive
104 | KDELCH | 1.81 ± 0.11
105 | WAVYVGVL | inactive
106 | KEAVFIFSTHSGFLALFCMM | inactive
107 | GVRQVMVSSFRGNHNQKDTS | inactive
108 | FYDHRIRSCGLVFIKECVTP | inactive
109 | WLGWPD | inactive
110 | VNALKRTGK | inactive
111 | RYFVRYVRSVLTSG | inactive
112 | FSGVLLNVYYGIHYTISIYR | inactive
113 | VASCMTGWLILDETMSSFKL | -0.746 ± 0.98
114 | LLMYARYSG | 1.52 ± 0.11
115 | VRLVGLCFYIAMSLPSSFFI | inactive
116 | IRFPTHSMYSLLYKRFLSPD | -0.744 ± 1.8
117 | RHLIAFVVNNSFLVDYDSIS | inactive
118 | TWFYQ | inactive
119 | LSWIWNLANSVKDNMGGMRM | inactive
120 | YSFHLIIESPKLVLFTHFTS | inactive
